Results taken from publication PMC12632113 (Cell & Bioscience, 2025).

Molecular target: the molecule itself
Test: native gel or EMSA

B1: polypyrimidine tract-binding protein 1 (PTBP1), wild type (natural protein)
chain: not shown
- stoichiometry N: 2
